One may read the Kd as the equilibrium constant for the complex coming apart. A low value points to tighter binding.

Consider one molecule from patent publication US20040192898A1 (published 2004).

This test concerns the target T1, Amyloid-beta 1-42 (UniProt P05067 672-713).
T1 construct: domain: Amyloid-beta 1-42; Bought peptide; 1-42 counts on the Aβ peptide, not on APP; also called Aβ1-42
As to the kind of experiment: SPR, BIAcore 2000; antibody captured, Aβ flowed over. The protocol: Antibody affinity (KD=Kd/Ka) was determined using a BlAcore biosensor 2000 and data analyzed with BlAevaluation (v. 3.1) software. A capture antibody (rabbit anti-mouse) was coupled via free amine groups to carboxyl groups on flow cell 2 of a biosensor chip (CM5) using N-ethyl-N-dimethylaminopropyl carbodiimide and N-hydroxysuccinimide (EDC/NHS). A non-specific rabbit IgG was coupled to flow cell 1 as a background control. Monoclonal antibodies were captured to yield 300 resonance units (RU). […] To regenerate the chip, bound anti-Aβ antibody was eluted from the chip using a wash with glycine-HCI (pH 2). A control injection containing no amyloid-beta served as a control for baseline subtraction.
For orientation: Surface plasmon resonance follows binding to a sensor surface in real time, without labels.

T1 sequence (P05067 672-713 limits assumed): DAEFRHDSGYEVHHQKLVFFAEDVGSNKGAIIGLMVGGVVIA

B1: Humanized 266 antibody (antibody, human IgG1, kappa, V domains shown)
VH: EVQLVESGGGLVQPGGSLRLSCAASGFTFSRYSMSWVRQAPGKGLELVAQINSVGNSTYYPDTVKGRFTISRDNAKNTLYLQMNSLRAEDTAVYYCASGDYWGQGTLVTVSS
VL: DVVMTQSPLSLPVTLGQPASISCRSSQSLIYSDGNAYLHWFLQKPGQSPRLLIYKVSNRFSGVPDRFSGSGSGTDFTLKISRVEAEDVGVYYCSQSTHVPWTFGQGTKVEIKR
modifications: N-glycosylated at Asn 56 (fully) and Asn 292
notes: Human IgG1 (pVg1) / kappa, expressed in Sp2/0; also called Hu266
For B1, the affinity, expressed as Kd, was 4 pM.
